Source: patent US20230020729A1 (Memorial Sloan Kettering, published 2023)

T1: human Fc Receptor-Like 5 (FcRL5), full length, expressed on cells (human, UniProt Q96RD9 16-977)
T1 construct: also called CD307e; IRTA2
T1 sequence: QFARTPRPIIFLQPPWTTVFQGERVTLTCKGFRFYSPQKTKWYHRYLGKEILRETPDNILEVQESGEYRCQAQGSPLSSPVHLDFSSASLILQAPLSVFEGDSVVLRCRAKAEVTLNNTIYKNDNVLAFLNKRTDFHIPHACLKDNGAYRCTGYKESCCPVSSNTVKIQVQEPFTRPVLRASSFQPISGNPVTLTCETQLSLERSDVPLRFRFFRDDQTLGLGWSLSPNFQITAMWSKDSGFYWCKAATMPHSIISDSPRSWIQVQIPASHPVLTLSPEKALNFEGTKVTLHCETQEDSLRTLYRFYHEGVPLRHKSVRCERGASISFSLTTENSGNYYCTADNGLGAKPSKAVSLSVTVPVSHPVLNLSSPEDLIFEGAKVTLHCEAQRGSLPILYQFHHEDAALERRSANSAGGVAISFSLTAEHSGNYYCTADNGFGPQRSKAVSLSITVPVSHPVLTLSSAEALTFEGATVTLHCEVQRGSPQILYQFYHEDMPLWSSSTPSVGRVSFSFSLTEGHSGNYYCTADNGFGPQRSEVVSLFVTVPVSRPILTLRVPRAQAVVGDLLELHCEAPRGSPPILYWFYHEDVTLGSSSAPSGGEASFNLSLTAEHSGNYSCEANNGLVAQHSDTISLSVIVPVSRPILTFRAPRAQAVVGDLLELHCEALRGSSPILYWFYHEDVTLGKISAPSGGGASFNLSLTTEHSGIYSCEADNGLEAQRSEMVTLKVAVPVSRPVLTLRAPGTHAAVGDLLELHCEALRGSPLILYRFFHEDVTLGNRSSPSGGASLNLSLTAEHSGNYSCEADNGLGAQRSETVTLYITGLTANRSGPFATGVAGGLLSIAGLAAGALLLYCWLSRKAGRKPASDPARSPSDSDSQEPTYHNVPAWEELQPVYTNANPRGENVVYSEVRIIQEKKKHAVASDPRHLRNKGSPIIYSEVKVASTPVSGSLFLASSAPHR

B1: ET200-045 scFv (scFv)
scFv: QPVLTQPPSVSVAPGKTATITCGGNNIGSESVHWYHQKPGQAPVLVIYDDAGRPSGIPERFTGSNSGNTATLTISRVEAGDEADYYCQVWDRNSAQFVFGPGTKVTVLGSRGGGGSGGGGSGGGGSLEMAEVQLVQSGAEVKKPGASVKVSCKASGYTFTSYGISWVRQAPGQGLEWMGWISAYNGNTNYAQKLQGRVTMTTDTSTSTAYMELRSLRSDDTAVYYCARGVHLDWWGQGTLVTVSS
notes: VL-linker-VH; screened as scFv phage clone
B2: ET200-069 scFv (scFv)
scFv: QSVVTQPPSASGTPGQRVTISCSGSSSNIGSNYVYWYQQLPGTAPKLLIYSNNQRPSGVPDRFSGSKSGTSASLAISGLRSEDEADYYCAAWDDSLSGYVFGTGTKLTVLGSRGGGGSGGGGSGGGGSLEMAQVQLQQWGAGLLKPSETLSLTCAVYGGSFSGYYWSWIRQPPGKGLEWIGEINHSGSTNYNPSLKSRVTISVDTSKNQFSLKLSSVTAADTAVYYCARLYEGGYHGWGSWLSSDSWGQGTLVTVSS
notes: VL-linker-VH; screened as scFv phage clone; also called ET200-69
B3: ET200-029 scFv (scFv)
scFv: QAVLTQPPSVSVAPGKTARVTCGGNNIGSESVHWYQQKPGQAPVLVIYYDTDRPSGIPERFSGSHSGTTATLTISRVEAGDEADYYCQVWDSSRDHVVFGGGTKLTVLGSRGGGGSGGGGSGGGGSLEMAQVQLVQSGGGVVQPGRSLRLSCAASGFTFSSYAMHWVRQAPGKGLEWVAVISYDGSNKYYADSVKGLFTISRDNSKNTLYLQMNSLRAEDTAVYYCARSYFTSGFYDYWGQGTLVTVSS
notes: as for B1
B4: ET200-031 scFv (scFv)
scFv: SYVLTQPPSVSVAPGKTARITCGGNNIGSKSVHWYQQKPGQAPVLVIYYDSDRPSGIPERFSGSNSGNTATLTISRVEAGDEADYYCQVWDSSSDYVFGTGTKVTVLGSRGGGGSGGGGSGGGGSLEMAEVQLVETGGGLVKPGGSLRLSCAASGFTVSDYYMSWIRQAPGKGLEWISYISGSGNSIYYADSVKGRFTISRDNAKNSLDLQMTSLRAEDTAVYYCARSTKFDYWGQGTLVTVSS
notes: VL-linker-VH; screened as scFv phage clone; also called ET200-31
B5: ET200-038 scFv (scFv)
scFv: QSVLTQPPSVSGAPGQRVTISCTGSSSNIGAGFDVHWYQLLPGTAPKLLIYANSNRPSGVPDRFSGSKSGTSASLAITGLLAEDEADYYCQSYDSSLSGVVFGGGTKLTVLGSRGGGGSGGGGSGGGGSLEMAQVQLVQSGAEVKKPGSSVKVSCKASGGTFSSYAISWVRQAPGQGLEWMGGIIPIFGTANYAQKFQGRVTITADESTSTAYMELSSLRSEDTAVYYCARGASFDRHDNWGQGTLVTVSS
notes: as for B1
B6: ET200-081 scFv (scFv)
scFv: QSALTQPASVSGSPGQSITISCTGTSSDIGGYNYVSWYQQHPGKAPKLMIYDVSNRPSGVSNRFSGSKSGNTASLTISGLQAEDEADYYCISYTRTWNPYVFGSGTKVTVLGSRGGGGSGGGGSGGGGSLEMAEVQLVQSGGGVVQPGGSLRLSCAASGFTFDDYAMHWVRQAPGKGLEWVSLISGDGGSTYYADSVKGRFTISRDNSKNSLYLQMNSLRTEDTALYYCAKDRAAAGYYYYGMDVWGQGTTVTVSS
notes: as for B1
B7: ET200-040 scFv (scFv)
scFv: QSVLTQPPSVSGAPGQRVTISCTGSSSNIGAGYDVHWYQQLPGTAPKLLIYGNSNRPSGVPDRFSGSKSGTSASLAITGLQAEDEADYYCQSYDSSLSGYVFGTGTKVTVLGSRGGGGSGGGGSGGGGSLEMAQVQLVQSGAEVKKPGASVKVSCKVSGYTLTELSMHWVRQAPGKGLEWMGGFDPEDGETIYAQKFQGRVTMTEDTSTDTAYMELSSLRSEDTAVYYCARYSGVYYDWGQGTLVTVSS
notes: as for B1
B8: ET200-041 scFv (scFv)
scFv: NFMLTQPHSVSGSPGKTVTISCTGSSGSIADNFVQWYQQRPGGVPTTVIFNDDERPSGVPDRFSGSIDTSSNSASLTISGLKTEDEADYYCQSYDNNNRGVFGGGTKLTVLGSRGGGGSGGGGSGGGGSLEMAQVQLVQSGAEVKKPGSSVKVSCKASGGTFSSYAISWVRQAPGQGLEWMGWMNPNSGNTGYAQKFQGRVTMTRNTSISTAYMELSNLRSEDTAVYYCARYYSYGYDWGQGTLVTVSS
notes: as for B1
B9: ET200-032 scFv (scFv)
scFv: LPVLTQPPSASGTPGQRVTISCSGSSSNVGSYTVNWYRQLPGTAPTLLIYNNNQRPSGVPDRFSDSKSGTSASLTISGLQPEDEADYYCAAWDDRLGGYVFGTGTKVTVLGSRGGGGSGGGGSGGGGSLEMAEVQLVQSGAEVKKPGESLKISCKGSGYSFTNYWIGWVRQMPGKGLEWMGIIYPGDSDTRYSPSFQGQVTISADKSISTAYLQWSSLKASDTAMYYCARSTGSSHMSDEWGQGTLVTVSS
notes: as for B1
B10: ET200-044 scFv (scFv)
scFv: QSVLTQPPSVSVSPGQTATIACSGHKLGDKYASWYQQKSGQSPVLIIYQDNKRPSGIPERFSGSNSGNTATLTISGTQALDEADYYCQAWDSSTYVAFGGGTKLTVLGSRGGGGSGGGGSGGGGSLEMAQVQLQESGPGLVKPSETLSLTCVVSGGSISSSNWWSWVRQPPGKGLEWIGEIYHSGSPNYNPSLKSRVTISVDKSKNQFSLKLSSVTAADTAVYYCARMTTHTFGYDAWGQGTLVTVSS
notes: as for B1
B11: ET200-033 scFv (scFv)
scFv: NFMLTQPHSVSESPGKTVTISCTGSSGSIASNYVQWYQQRPGSAPTTVIYEDNQRPSGVPDRFSGSIDSSSNSASLTISGLKTEDEADYYCQSYDSSNHWVFGGGTKLTVLGSRGGGGSGGGGSGGGGSLEMAQVQLQQWGAGLLKPSETLSLTCAVYGGSFSGYYWSWIRQPPGKGLEWIGEITHSGRSNYNPSLKSRVTISVDTSKNQFSLKLSSVTAADTAVYYCARSSIMSDYWGQGTLVTVSS
notes: as for B1
B12: ET200-034 scFv (scFv)
scFv: QSVLTQPPSVSGAPGQRVTISCTGSTSNIGAGYDVHWYQQLPGTAPKLLINNNRNRPSGVPDRFSGSKSGTSATLGITGLQTGDEADYYCGTWDGSLTGAVFGGGTKLTVLGSRGGGGSGGGGSGGGGSLEMAEVQLVQSGAEVKKPGSSVKVSCKASGGTFSSYAISWVRQAPGQGLEWMGGIIPIFGTANYAQKFQGRVTITADESTSTAYMELSSLRSEDTAVYYCARGSALDHYDRWGQGTLVTVSS
notes: as for B1
B13: ET200-030 scFv (scFv)
scFv: QSVVTQPPSVSGAPGQRVTISCTGSSSNIGAGYDVNWYQQFPGTAPKLLIYGNSNRPSGVPDRFSGSKSGTSASLAITGLQAEDEADYYCQSYDSSLSGSYVFGTGTKVTVLGSRGGGGSGGGGSGGGGSLEMAQMQLVQSGAEVKKPGASVKVSCKASGYTLTELSMHWVRQAPGKGLEWMGGFDPEDGETIYAQKFQGRVTMTEDTSTDTAYMELSSLRSEDTAVYYCARMSSMYYDWGQGTLVTVSS
notes: as for B1
B14: ET200-003 scFv (scFv)
scFv: QSVLTQPPSVSVSPGQTASISCSGNKLGTKYVYWYQKRPGQSPVLVMYEDNQRPSGIPERFSGSNSGNTATLTIRGTQTVDEADYYCQAWDSDTFVVFGGGTKVTVLGSRGGGGSGGGGSGGGGSLEMAEVQLVETGGGVVQPGRSLRLSCAASGFTFSSYGMHWVRQAPGKGLEWVAVISHDGSNKYYADSVKGRFTISRDNSKDTLYLQMNSLRGEDTAVYYCARSNQWSGYFSFDYWGQGTLVTVSS
notes: as for B1
B15: ET200-006 scFv (scFv)
scFv: SYVLTQPPSVSVAPGKTARITCGGNNIGSKSVHWYQQKPGQAPVVVIHYDSDRPSGIPERFSGSNSGNTATLTISRVEAGDEADYYCQVWDSSSDHPYVFGTGTKVTVLGSRGGGGSGGGGSGGGGSLEMAEVQLVQSGAEVKKPGASVKVSCKASGYTFTTYGISWVRQAPGQGLEWMGWINTYNGHTNYAQKLQGRATMTADTSTNTAYMELRSLRSDDTAVYYCARVIYGSGDYWGQGTLVTVSS
notes: as for B1
B16: ET200-079 scFv (scFv)
scFv: SYELTQPPSASGTPGQRVTISCSGSSSNIGSNYVYWYQQLPGTAPKLFIYRNNQRPSGVPDRFSGSKSGTSASLAISGLRSEDEADYYCAAWDDSLSGYLFGTGTKVTVLGSRGGGGSGGGGSGGGGSLEMAEVQLVESGGGLVQPGRSLRLSCAASGFTFDDYAMHWVRQAPGKGLEWVSGISWNSGSIGYADSVKGRFTISRDNAKNSLYLQMNSLRAEDTALYYCANGDSNYYYGMDVWGQGTTVTVSS
notes: as for B1
B17: ET200-042 scFv (scFv)
scFv: QSVVTQPPSVSGAPGQTVTISCTGGSSNIGTGYFVNWYQQVPGKAPKLLILGNNNRPSGVPDRLSGSTSGTSASLAITGLQAEDEGTYYCQSYDSSLSGYVFGTGTKVTVLGSRGGGGSGGGGSGGGGSLEMAQVQLQQSGPGLVKPSQTLSLTCGISGDSVSTNSVAWHWIRQSPSRGLEWLGRTYYRSKWSNDYGVSVKSRITIIPDTSKNQFSLQLNSVTPEDTAVYYCARSSSWYQIFDYWGQGTLVTVSS
notes: as for B1

target: T1, human Fc Receptor-Like 5 (FcRL5), full …; experiment: scFv phage: ELISA on His-tag FcRL5, flow cytometry on FcRL5-overexpressing 3T3 and Raji cells

Question: Does B1 bind?
Answer: Result: binds

Question: Does B2 bind?
Answer: Result: binds

Question: Does B3 bind?
Answer: Result: binds

Question: Does B4 bind?
Answer: Result: binds

Question: Does B5 bind?
Answer: Result: binds

Question: Does B6 bind?
Answer: Result: binds

Question: Does B7 bind?
Answer: Result: binds

Question: Does B8 bind?
Answer: Result: binds

Question: Does B9 bind?
Answer: Result: binds

Question: Does B10 bind?
Answer: Result: binds

Question: Does B11 bind?
Answer: Result: binds

Question: Does B12 bind?
Answer: Result: binds

Question: Does B13 bind?
Answer: Result: binds

Question: Does B14 bind?
Answer: Result: binds

Question: Does B15 bind?
Answer: Result: binds

Question: Does B16 bind?
Answer: Result: binds

Question: Does B17 bind?
Answer: Result: binds
